According to US12679878B2, “CRF2 receptor agonists and their use in therapy” (SANOFI, priority 2020, dated 2026):
Starred links: 1 amine or outer side, 2 acyl side, 3 side chain; linkers in the order of their positions; H or OH if unused. Non-standard residues stand in square brackets, D forms with d. Groups on a side chain read outwards from the residue. No end group written: not given here. *: point of attachment. γGlu = O=C(O)[C@H](CCC(=O)[*:2])N[*:1]; Palmitoyl = CCCCCCCCCCCCCCCC(=O)*; Aib = CC(C)(N)C(=O)O

T1: CRF1R receptor (anti-target) (UniProt P34998 24-415, limits assumed)
T1 sequence (looked up): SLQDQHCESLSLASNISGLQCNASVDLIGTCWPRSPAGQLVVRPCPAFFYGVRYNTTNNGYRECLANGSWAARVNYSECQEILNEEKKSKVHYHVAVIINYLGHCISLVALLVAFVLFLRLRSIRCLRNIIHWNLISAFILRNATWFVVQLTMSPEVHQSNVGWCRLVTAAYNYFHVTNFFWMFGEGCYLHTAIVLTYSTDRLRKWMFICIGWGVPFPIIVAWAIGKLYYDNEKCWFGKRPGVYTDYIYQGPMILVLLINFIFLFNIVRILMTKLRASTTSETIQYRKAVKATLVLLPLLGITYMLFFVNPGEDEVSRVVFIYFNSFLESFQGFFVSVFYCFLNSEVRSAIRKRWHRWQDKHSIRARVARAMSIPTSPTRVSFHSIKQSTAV

B1: peptide of SEQ ID NO: 214 (peptide)
peptide: IVLSLD[dV]PIKLK([γGlu-Palmitoyl])QILLKQERQKKQRQQAEKNKQILAQV-NH2
modifications: N-terminus assumed
SMILES: CCCCCCCCCCCCCCCC(=O)N[C@@H](CCC(=O)NCCCC[C@H](NC(=O)[C@H](CC(C)C)NC(=O)[C@H](CCCCN)NC(=O)[C@@H](NC(=O)[C@@H]1CCCN1C(=O)[C@H](NC(=O)[C@H](CC(=O)O)NC(=O)[C@H](CC(C)C)NC(=O)[C@H](CO)NC(=O)[C@H](CC(C)C)NC(=O)[C@@H](NC(=O)[C@@H](N)[C@@H](C)CC)C(C)C)C(C)C)[C@@H](C)CC)C(=O)N[C@@H](CCC(N)=O)C(=O)N[C@H](C(=O)N[C@@H](CC(C)C)C(=O)N[C@@H](CC(C)C)C(=O)N[C@@H](CCCCN)C(=O)N[C@@H](CCC(N)=O)C(=O)N[C@@H](CCC(=O)O)C(=O)N[C@@H](CCCNC(=N)N)C(=O)N[C@@H](CCC(N)=O)C(=O)N[C@@H](CCCCN)C(=O)N[C@@H](CCCCN)C(=O)N[C@@H](CCC(N)=O)C(=O)N[C@@H](CCCNC(=N)N)C(=O)N[C@@H](CCC(N)=O)C(=O)N[C@@H](CCC(N)=O)C(=O)N[C@@H](C)C(=O)N[C@@H](CCC(=O)O)C(=O)N[C@@H](CCCCN)C(=O)N[C@@H](CC(N)=O)C(=O)N[C@@H](CCCCN)C(=O)N[C@@H](CCC(N)=O)C(=O)N[C@H](C(=O)N[C@@H](CC(C)C)C(=O)N[C@@H](C)C(=O)N[C@@H](CCC(N)=O)C(=O)N[C@H](C(N)=O)C(C)C)[C@@H](C)CC)[C@@H](C)CC)C(=O)O
B2: peptide of SEQ ID NO: 209 (peptide)
peptide: IVLSLD[dV]PIKLK([γGlu-Palmitoyl])QILLKQERQKK[Aib]RQKAEKNKQILAQV-NH2
modifications: N-terminus assumed
SMILES: CCCCCCCCCCCCCCCC(=O)N[C@@H](CCC(=O)NCCCC[C@H](NC(=O)[C@H](CC(C)C)NC(=O)[C@H](CCCCN)NC(=O)[C@@H](NC(=O)[C@@H]1CCCN1C(=O)[C@H](NC(=O)[C@H](CC(=O)O)NC(=O)[C@H](CC(C)C)NC(=O)[C@H](CO)NC(=O)[C@H](CC(C)C)NC(=O)[C@@H](NC(=O)[C@@H](N)[C@@H](C)CC)C(C)C)C(C)C)[C@@H](C)CC)C(=O)N[C@@H](CCC(N)=O)C(=O)N[C@H](C(=O)N[C@@H](CC(C)C)C(=O)N[C@@H](CC(C)C)C(=O)N[C@@H](CCCCN)C(=O)N[C@@H](CCC(N)=O)C(=O)N[C@@H](CCC(=O)O)C(=O)N[C@@H](CCCNC(=N)N)C(=O)N[C@@H](CCC(N)=O)C(=O)N[C@@H](CCCCN)C(=O)N[C@@H](CCCCN)C(=O)NC(C)(C)C(=O)N[C@@H](CCCNC(=N)N)C(=O)N[C@@H](CCC(N)=O)C(=O)N[C@@H](CCCCN)C(=O)N[C@@H](C)C(=O)N[C@@H](CCC(=O)O)C(=O)N[C@@H](CCCCN)C(=O)N[C@@H](CC(N)=O)C(=O)N[C@@H](CCCCN)C(=O)N[C@@H](CCC(N)=O)C(=O)N[C@H](C(=O)N[C@@H](CC(C)C)C(=O)N[C@@H](C)C(=O)N[C@@H](CCC(N)=O)C(=O)N[C@H](C(N)=O)C(C)C)[C@@H](C)CC)[C@@H](C)CC)C(=O)O
B3: peptide of SEQ ID NO: 212 (peptide)
peptide: IVLSLD[dV]PIKLK([γGlu-Palmitoyl])QILLKQERQKKQREQAEKNKQILEQV-NH2
modifications: N-terminus assumed
SMILES: CCCCCCCCCCCCCCCC(=O)N[C@@H](CCC(=O)NCCCC[C@H](NC(=O)[C@H](CC(C)C)NC(=O)[C@H](CCCCN)NC(=O)[C@@H](NC(=O)[C@@H]1CCCN1C(=O)[C@H](NC(=O)[C@H](CC(=O)O)NC(=O)[C@H](CC(C)C)NC(=O)[C@H](CO)NC(=O)[C@H](CC(C)C)NC(=O)[C@@H](NC(=O)[C@@H](N)[C@@H](C)CC)C(C)C)C(C)C)[C@@H](C)CC)C(=O)N[C@@H](CCC(N)=O)C(=O)N[C@H](C(=O)N[C@@H](CC(C)C)C(=O)N[C@@H](CC(C)C)C(=O)N[C@@H](CCCCN)C(=O)N[C@@H](CCC(N)=O)C(=O)N[C@@H](CCC(=O)O)C(=O)N[C@@H](CCCNC(=N)N)C(=O)N[C@@H](CCC(N)=O)C(=O)N[C@@H](CCCCN)C(=O)N[C@@H](CCCCN)C(=O)N[C@@H](CCC(N)=O)C(=O)N[C@@H](CCCNC(=N)N)C(=O)N[C@@H](CCC(=O)O)C(=O)N[C@@H](CCC(N)=O)C(=O)N[C@@H](C)C(=O)N[C@@H](CCC(=O)O)C(=O)N[C@@H](CCCCN)C(=O)N[C@@H](CC(N)=O)C(=O)N[C@@H](CCCCN)C(=O)N[C@@H](CCC(N)=O)C(=O)N[C@H](C(=O)N[C@@H](CC(C)C)C(=O)N[C@@H](CCC(=O)O)C(=O)N[C@@H](CCC(N)=O)C(=O)N[C@H](C(N)=O)C(C)C)[C@@H](C)CC)[C@@H](C)CC)C(=O)O
B4: peptide of SEQ ID NO: 218 (peptide)
peptide: IVLSLD[dV]PIGLK([γGlu-Palmitoyl])QILLKQERQKK[Aib]REQAEKNKRILERV-NH2
modifications: N-terminus assumed
SMILES: CCCCCCCCCCCCCCCC(=O)N[C@@H](CCC(=O)NCCCC[C@H](NC(=O)[C@H](CC(C)C)NC(=O)CNC(=O)[C@@H](NC(=O)[C@@H]1CCCN1C(=O)[C@H](NC(=O)[C@H](CC(=O)O)NC(=O)[C@H](CC(C)C)NC(=O)[C@H](CO)NC(=O)[C@H](CC(C)C)NC(=O)[C@@H](NC(=O)[C@@H](N)[C@@H](C)CC)C(C)C)C(C)C)[C@@H](C)CC)C(=O)N[C@@H](CCC(N)=O)C(=O)N[C@H](C(=O)N[C@@H](CC(C)C)C(=O)N[C@@H](CC(C)C)C(=O)N[C@@H](CCCCN)C(=O)N[C@@H](CCC(N)=O)C(=O)N[C@@H](CCC(=O)O)C(=O)N[C@@H](CCCNC(=N)N)C(=O)N[C@@H](CCC(N)=O)C(=O)N[C@@H](CCCCN)C(=O)N[C@@H](CCCCN)C(=O)NC(C)(C)C(=O)N[C@@H](CCCNC(=N)N)C(=O)N[C@@H](CCC(=O)O)C(=O)N[C@@H](CCC(N)=O)C(=O)N[C@@H](C)C(=O)N[C@@H](CCC(=O)O)C(=O)N[C@@H](CCCCN)C(=O)N[C@@H](CC(N)=O)C(=O)N[C@@H](CCCCN)C(=O)N[C@@H](CCCNC(=N)N)C(=O)N[C@H](C(=O)N[C@@H](CC(C)C)C(=O)N[C@@H](CCC(=O)O)C(=O)N[C@@H](CCCNC(=N)N)C(=O)N[C@H](C(N)=O)C(C)C)[C@@H](C)CC)[C@@H](C)CC)C(=O)O

Molecular target: human corticotropin-releasing factor 2α (CRF2α receptor) (human), Q13324
Assay: cell-based or functional assay

human corticotropin-releasing factor 2α (CRF2α receptor) (human), Q13324, sequence (Q13324 20-411): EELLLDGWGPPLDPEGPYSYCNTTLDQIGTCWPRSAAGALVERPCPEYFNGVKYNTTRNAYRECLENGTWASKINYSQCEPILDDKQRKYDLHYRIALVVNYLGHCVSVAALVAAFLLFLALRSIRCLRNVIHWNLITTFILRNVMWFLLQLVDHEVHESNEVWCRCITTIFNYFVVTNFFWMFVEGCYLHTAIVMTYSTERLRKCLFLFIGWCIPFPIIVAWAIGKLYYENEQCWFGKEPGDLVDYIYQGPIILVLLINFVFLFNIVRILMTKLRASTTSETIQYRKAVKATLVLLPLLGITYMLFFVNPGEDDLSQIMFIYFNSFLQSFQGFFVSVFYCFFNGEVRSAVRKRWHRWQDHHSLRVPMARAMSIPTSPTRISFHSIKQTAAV

EC50 [nM], 0% HSA (cAMP, HTRF)	Binder
4.15 nM	B1
8.62 nM	B2
1.23 nM	B3
1.58 nM	B4

Molecular target: human corticotropin-releasing factor 2α receptor (CRF2α receptor) (human), Q13324
Assay: cell-based or functional assay

human corticotropin-releasing factor 2α receptor (CRF2α receptor) (human), Q13324, sequence (Q13324 20-411): as above

CRF2 EC50 (cAMP, HTRF)	Binder
4.15 nM	B1
8.62 nM	B2
1.23 nM	B3
1.58 nM	B4

Molecular target: T1, CRF1R receptor (anti-target)
Assay: cell-based or functional assay

CRF1/CRF2 ratio (of EC50)	CRF1 EC50 (cAMP, HTRF)	Binder
1	4.27 nM	B1
3	21.7 nM	B2
1	0.9 nM	B3
4	6.97 nM	B4
